Data reported in PMC8307404, “Crystal Structure-Guided Design of Bisubstrate Inhibitors and Photoluminescent Probes for Protein Kinases of the PIM Family” (Molecules, 2021).

Legend:
[1] = system: panel of 140 PKs; test: Kinase selectivity profiling, panel metrics; type: biochemical, human; conditions: 1 µM compound; kinases other than PIM family
Description: (§1) Kinase selectivity profiling was performed using the commercial service provided by the MRC PPU International Centre for Kinase Profiling (Dundee, UK) using a radiometric filter-binding assay. Kinases used for analysis were of human origin. The ATP concentration applied for inhibition measurements was at or below the ATP KM value of the particular PK. ARC-3125 and ARC-3126 were screened against 139 PKs, whereas compounds 1, 2, and 8 were screened against 140 PKs. The final total concentration of inhibitors in the selectivity panel was 1 µM. Residual activities were expressed as the percentage of retained activity compared to the control without inhibitor.
From the residual activities, values of the Gini coefficient and hit rate were calculated for each individual compound. The Gini coefficient is a single-value metric whose value for a specific inhibitor depends on the number and origin of the PKs in the panel, but also on concentration of the tested compound [70]. Hit rate is the number of kinases inhibited by over 50%.

[2] = system: PIM family; test: Kinase profiling (radiometric filter-binding), PIM family; type: biochemical, human; conditions: 1 µM compound
Description: as §1

[3] = system: U2OS cells; test: Cellular uptake of fluorescent probes, live-cell microscopy; type: cell-based, human; conditions: 1–5 μM, 10–60 min
Description: For studies of the general internalization properties of ARCs, the cells were seeded at the density of 12,000–25,000 cells per well onto an Ibidi μ-plate (96-well; Ibidi GmbH, Planegg, Germany). After 24 h incubation in growth medium, the cells were treated for 10 min, 30 min, or 1 h with dilutions of compounds 6, 7, 8, or ARC-2090 (5 μM, 2.5 μM, or 1 μM final concentration) in the phenol red-free DMEM/Ham’s F12 medium supplemented with 2% ccFBS and 2 mM glutamine. Next, cells were washed twice with PBS, and imaging medium (MEMO + Supplement A 1:100) was applied subsequently. Cells were imaged with Cytation 5 wide-field microscope (BioTek; Winooski, VT, USA) using 20× air objective and the following settings: for Cy5, 623 nm LED (intensity: 2) and Cy5 filter cube (685 nm) with 104 ms integration time and detector gain value of 2; for TAMRA, 523 nm LED (intensity: 7) and RFP filter cube (593 nm) with 252 ms integration time and detector gain value of 16; for bright-field, white LED with intensity 6, 186 ms integration time and detector gain value of 15. Four independent experiments were performed.

SMILES: N=C(N)NCCC[C@@H](NC(=O)CNC(=O)[C@@H](CCCNC(=N)N)NC(=O)[C@@H](CCCNC(=N)N)NC(=O)CCCCCCCNCc1nc2c(sc3cc(Br)cnc32)c(=O)[nH]1)C(=O)N[C@H](CCCCN)C(N)=O [Compound 1, BPTP-Aoc-(D-Arg)2-Gly-D-Arg-D-Lys-NH2]
- residual activity of other basophilic kinases in the panel [1]: above 81%

SMILES: N=C(N)NCCC[C@@H](NC(=O)CNC(=O)[C@@H](CCCNC(=N)N)NC(=O)[C@@H](CCCNC(=N)N)NC(=O)CCCCCCCNCc1nc2c(sc3ccc(Br)cc32)c(=O)[nH]1)C(=O)N[C@H](CCCCN)C(N)=O [Compound 2, BBTP-Aoc-(D-Arg)2-Gly-D-Arg-D-Lys-NH2]
- residual activity, PIM family, all isoforms [2]: 4–7%

SMILES: CN(C)c1ccc2c(c1)Oc1cc(N(C)C)ccc1C21OC(=O)c2cc(C(=O)NCCCC[C@@H](NC(=O)[C@@H](CCCNC(=N)N)NC(=O)CNC(=O)[C@@H](CCCNC(=N)N)NC(=O)[C@@H](CCCNC(=N)N)NC(=O)CCCCc3cn(Cc4nc5c(sc6ccc(Br)cc65)c(=O)[nH]4)nn3)C(N)=O)ccc21 [Compound 8, BBTP-Tap-(D-Arg)2-Gly-D-Arg-[D-Lys(5-TAMRA)]-NH2]
- ability to cross the plasma membrane / internalization [3]: much lower internalization efficiency
